In paper PMC6294567, “The C-terminal D/E-rich domain of MBD3 is a putative Z-DNA mimic that competes for Zα DNA-binding activity” (Nucleic Acids Research, 2018):
“And” between values parts separate entries of the source, which are not always exact repeats. Equal entries are not always repeated. Primed or numbered codes have the meaning given here. Where no end group is shown, it is not given here. FITC′ = fluorescein isothiocyanate label

What was measured:
[1] = biological target: T1, Zα and 6-FAM-d(CG)6 duplex (Homo sapiens, UniProt P55265); test: FP competition: displacement of Zα binding to 6-FAM-d(CG)6
T1 construct: Zα of human ADAR1; residues 133–209; His6 (pMCSG7, followed by a TEV site) (N, cleaved yes); made in house; host or cells: E. coli BL21(DE3)
T1 sequence (P55265 133-209): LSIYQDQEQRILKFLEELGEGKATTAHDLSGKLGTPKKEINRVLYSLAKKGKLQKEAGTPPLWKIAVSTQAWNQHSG

[2] = biological target: Zα, tag-free (Z-DNA binding domain of human ADAR1, residues 133-209) (human) (UniProt P55265); test: fluorescence polarisation; competition: unlabelled peptide added to the pre-incubated mixture of Zα and 6-FAM-d(CG)6 duplex; 20 mM HEPES-NaOH pH 7.5, 50 mM NaCl, 1 mM DTT; dose-response (variable slope) model
[3] = biological target: MBDDE (MBD domain of MBD3 connected to the acidic tail; residues 263–291), tag-free (human) (UniProt O95983); test: SEC; Zα (400 μM) and MBDDE (100 μM), or Zα and MBD under the same conditions, 4:1 molar ratio; 20 mM Tris-HCl pH 7.5, 50 mM NaCl, 1 mM TCEP; Superdex 75 10/300 GL; fractions on SDS-PAGE
Zα = biological target: T2, Zα (Homo sapiens, UniProt P55265); test: SEC / SDS-PAGE complex formation with Zα; assay type: binding
T2 construct: Zα of human ADAR1; residues 133–209; His6 (pMCSG7, followed by a TEV site) (N, cleaved yes); made in house; host or cells: E. coli BL21(DE3)
T2 sequence (P55265 133-209): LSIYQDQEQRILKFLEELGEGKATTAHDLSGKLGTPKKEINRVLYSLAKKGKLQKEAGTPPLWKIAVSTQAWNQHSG
Protocol: Equimolar amounts (0.1 mM) of Zα and DE-rich peptide were incubated on ice for 1 h in a buffer containing 20 mM HEPES–NaOH pH 7.5, 50 mM NaCl, 1 mM DTT. The mixture was then loaded on a Superdex 30 16/600 column (GE Healthcare) equilibrated in the same buffer. The fractions from the peaks corresponding to Zα alone and the complex of Zα and DE-rich peptide were collected and used for chemical cross-linking.
To analyze complex formation of Zα and other proteins (MBD3, MBD or MBDDE), the mixtures were incubated on ice for 1 h in a buffer containing 20 mM Tris–HCl pH 7.5, 50 mM NaCl, 1 mM TCEP. The mixture was then loaded on a Superdex 75 or Superdex 200 increase 10/300 column (GE Healthcare).

d(CG)6 duplex = test: Circular dichroism of d(CG)6 DNA conformation
Protocol: CD spectra were measured at 24°C on a J-815 Spectrometer (JASCO) using a 1 mm path length quartz cell. Prepare 7.5 μM DNA duplex in a buffer consisting of 5 mM HEPES–NaOH pH 7.5, 25 mM NaCl and 1 mM DTT, and in the absence or presence of indicated concentration of proteins. Spectra were recorded between 235 and 305 nm wavelength with a data pitch of 1 nm, bandwidth of 1 nm and with two accumulations at a scanning speed of 10 nm/min.
Figure 6. Zα can compete with the MBD domain for binding to d(CG)6, but not vice versa. (A) CD spectra of the d(CG)6 duplex in the presence of Zα. CD spectra of (B) the d(CG)6 and (C) the d(C^mG)6 duplex, respectively, in the presence of the MBD domain. (D) Monitoring of the change in CD spectra with the addition of increased amounts of Zα to the pre-incubated mixture of the MBD domain and d(CG)6. (E) Monitoring of the change in CD spectra with the addition of increased amount of the MBD domain to the pre-incubated mixture of Zα and d(CG)6. Spectra are expressed in absolute values of ellipticity in millidegrees (mdeg).

[4] = biological target: T3, MBD domain of MBD3 (residues 1–72), tag-free (human, UniProt O95983-1 1-72); test: FP
T3 chain: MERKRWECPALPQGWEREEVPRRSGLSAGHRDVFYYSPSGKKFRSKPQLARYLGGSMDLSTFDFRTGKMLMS

[5] = biological target: T4, Zα, tag-free (Z-DNA binding domain of human ADAR1, residues 133-209) (human, UniProt P55265 133-209); test: fluorescence polarisation; FITC-labelled D/E-rich peptide against titrated protein; 20 mM HEPES-NaOH pH 7.5, 50 mM NaCl, 1 mM DTT; one-site total binding model; conditions: both partners purified
T4 construct: Zα domain of human ADAR1, residues 133-209; from pMCSG7-Zα; source: E. coli BL21(DE3), purified (Ni-NTA, TEV cleavage, reverse Ni-NTA, gel filtration); not shown: His6, N-terminal, cleaved
T4 sequence (looked up): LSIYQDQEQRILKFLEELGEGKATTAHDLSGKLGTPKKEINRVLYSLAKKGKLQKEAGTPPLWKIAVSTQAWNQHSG

Sso7d = biological target: T5, Sso7d (UniProt P39476 1-64); test: as above; conditions: both partners purified
T5 sequence (looked up): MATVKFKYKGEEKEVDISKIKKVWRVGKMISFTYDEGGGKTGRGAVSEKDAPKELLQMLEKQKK

[6] = biological target: the molecule itself; test: SEC; purified MBDDE or MBD alone on Superdex 75 10/300 GL against protein standards
[7] = Stability of E. coli-expressed protein; assay type: physicochemical; conditions: recombinant E. coli-expressed protein
[8] = biological target: T6, MBD3 (full-length human MBD3; residue 1–291), tag-free (human), O95983; test: SEC; purified MBD3 alone on Superdex 200 increase 10/300 GL against protein standards; conditions: remark: other sources report otherwise
T6 chain: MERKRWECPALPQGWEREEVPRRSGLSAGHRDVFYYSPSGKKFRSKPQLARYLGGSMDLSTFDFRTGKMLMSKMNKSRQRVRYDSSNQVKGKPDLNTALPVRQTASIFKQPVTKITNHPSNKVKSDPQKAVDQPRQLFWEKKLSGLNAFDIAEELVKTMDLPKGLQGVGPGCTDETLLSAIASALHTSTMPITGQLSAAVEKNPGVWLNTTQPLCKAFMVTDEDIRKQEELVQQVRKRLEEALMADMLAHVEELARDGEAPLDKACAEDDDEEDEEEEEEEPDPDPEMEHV

endogenous ADAR1 = test: FLAG immunoprecipitation of endogenous ADAR1 in 293F cells; assay type: cell-based, human; conditions: anti-ADAR1 western blot
Protocol: For expressing FLAG-MBD3 and its mutants in 293F cells (Freestyle™ 293 Expression System; Invitrogen), the DNA fragments were PCR amplified and inserted into HindIII site of pFLAG-CMV-2 vector (Sigma-Aldrich). The plasmids were purified by EasyPrep EndoFree Maxi Plasmid Extraction Kit (BIOTOOLS Co., Ltd, Taiwan) and transiently transfected into 293F cells using 293fectin (Invitrogen) according to the manufacturer's guidelines.
After 48 h posttransfection, the cells were washed with cold PBS and lysed with lysis buffer [50 mM Tris–HCl pH 7.5, 0.3% NP-40, 100 mM potassium acetate, 10% glycerol, 50 U/ml Benzonaes (Novagen) and EDTA-free protease inhibitor cocktail tablet (Roche)]. The lysates were incubated with anti-FLAG M2 Affinity Gel (A2220; Sigma-Aldrich) on a rotation at 4°C overnight. […] The immunoprecipitates were eluted by FLAG peptide (F4799; Sigma-Aldrich) and resolved by a NuPAGE 12% Bis–Tris gel (Invotrogen). Specific antibodies used for western blotting were Rabbit anti-FLAG (1:5000; F7425; Sigma-Aldrich) and rabbit anti-ADAR1 D7E2M (1:1000; 14175; Cell Signaling Technology).

[9] = biological target: T7, Zα, tag-free (Z-DNA binding domain of human ADAR1, residues 133-209) (human), P55265; test: fluorescence polarisation; competition: unlabelled peptide added to the pre-incubated mixture of Zα and 6-FAM-d(CG)6 duplex; 20 mM HEPES-NaOH pH 7.5, 50 mM NaCl, 1 mM DTT; dose-response (variable slope) model
T7 chain: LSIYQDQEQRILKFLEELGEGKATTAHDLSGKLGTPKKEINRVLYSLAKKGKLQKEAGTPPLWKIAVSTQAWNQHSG

## poly-L-glutamic acid [polyE]
[1]; 6-FAM-d(CG)6
  competition with d(CG)6 for binding to Zα (in words): could compete with Zα binding to d(CG)6, although the efficiency was lower than full-length D/E-rich peptide
[1]; pre-incubated Zα and 6-FAM-d(CG)6, triplicate, 95% CI 3.4–8.9 μg/ml
  concentration at 50% displacement (IC50): 5.5 mg/L

## poly-L-glutamic acid (1500–5500 Da; Sigma) peptide
[2]
  IC50: 1 to 3.7 µM

## Zα, tag-free (Z-DNA binding domain of human ADAR1, residues 133-209) (from UniProt P55265 133-209) (domain or fragment)
[3]
  stoichiometry N: 1 Zα per MBDDE and 2 Zα per MBDDE

B1: MBD domain: MBD domain of MBD3; residues 1–72 (protein)
chain: MERKRWECPALPQGWEREEVPRRSGLSAGHRDVFYYSPSGKKFRSKPQLARYLGGSMDLSTFDFRTGKMLMS
modifications: left off: His6, N-terminal, cleaved
Zα; Zα : MBD 4:1 molar ratio, Superdex 75 10/300 GL
  complex formation with Zα on SEC: no complex formation was detected
d(CG)6 duplex; CD 235-305 nm, 24°C, 7.5 μM DNA duplex, 5 mM HEPES–NaOH pH 7.5, 25 mM NaCl, 1 mM DTT
  DNA conformation after binding: kept the duplex DNA in B-form
d(CG)6 duplex; CD, increasing MBD domain
  competition for binding to d(CG)6 (MBD domain added to pre-incubated Zα and d(CG)6): could not compete with the binding of Zα and Z-DNA

B2: D/E-rich peptide of MBD3, FITC-labelled (peptide)
chain: {FITC′}-DKACAEDDDEEDEEEEEEEPDPDP
[4]
  Kd: 0.0212 µM
[5]
  Kd: 0.0291 ± 0.0017 µM
Sso7d
  Kd: 1.1 ± 0.2 µM

B3: MBDDE (MBD domain of MBD3 connected to the acidic tail; residues 263–291), tag-free (domain or fragment, human, UniProt O95983-1 1-72, looked up)
chain: MERKRWECPALPQGWEREEVPRRSGLSAGHRDVFYYSPSGKKFRSKPQLARYLGGSMDLSTFDFRTGKMLMSDKACAEDDDEEDEEEEEEEPDPDPEMEHV
notes: MBD domain of human MBD3; its limits (1-72) are those printed for the MBD3MBD construct; No linker between the two stretches is mentioned; The protein was partly degraded from the C-terminal disordered region by mass spectrometry; source: E. coli BL21(DE3), purified (Ni-NTA, TEV cleavage, reverse Ni-NTA, gel filtration); not shown: His6, N-terminal, cleaved
[6]
  stoichiometry N: 2

B4: MBDDE: MBD domain of MBD3 connected to the acidic tail; residues 263–291 (protein)
chain: MERKRWECPALPQGWEREEVPRRSGLSAGHRDVFYYSPSGKKFRSKPQLARYLGGSMDLSTFDFRTGKMLMSDKACAEDDDEEDEEEEEEEPDPDPEMEHV
modifications: left off: His6, N-terminal, cleaved
Zα; SEC, Zα and MBDDE
  efficiency of interaction with Zα relative to D/E peptide: less efficiently than with D/E peptide
Zα; Zα 100 μM : protein 25 μM (4:1), ice 1 h, 20 mM Tris–HCl pH 7.5, 50 mM NaCl, 1 mM TCEP
  complex formation with Zα on SEC: could not detect stable complex formation of Zα and MBDDE
Zα; Zα 400 μM : MBDDE 100 μM (4:1), ice 1 h, Superdex 75, pH 7.5
  complex formation with Zα on SEC: a small amount of MBDDE and Zα complex was detected
[7]
  protein stability (in words): more sensitive to protease than the MBD domain

B5: MBD3 (full-length human MBD3; residue 1–291), tag-free, O95983-1 1-291 (natural protein)
chain: MERKRWECPALPQGWEREEVPRRSGLSAGHRDVFYYSPSGKKFRSKPQLARYLGGSMDLSTFDFRTGKMLMSKMNKSRQRVRYDSSNQVKGKPDLNTALPVRQTASIFKQPVTKITNHPSNKVKSDPQKAVDQPRQLFWEKKLSGLNAFDIAEELVKTMDLPKGLQGVGPGCTDETLLSAIASALHTSTMPITGQLSAAVEKNPGVWLNTTQPLCKAFMVTDEDIRKQEELVQQVRKRLEEALMADMLAHVEELARDGEAPLDKACAEDDDEEDEEEEEEEPDPDPEMEHV
[8]
  stoichiometry N: 2

B6: FLAG-MBD3: FLAG-tagged full-length MBD3 transiently expressed in 293F cells (protein)
chain: MERKRWECPALPQGWEREEVPRRSGLSAGHRDVFYYSPSGKKFRSKPQLARYLGGSMDLSTFDFRTGKMLMSKMNKSRQRVRYDSSNQVKGKPDLNTALPVRQTASIFKQPVTKITNHPSNKVKSDPQKAVDQPRQLFWEKKLSGLNAFDIAEELVKTMDLPKGLQGVGPGCTDETLLSAIASALHTSTMPITGQLSAAVEKNPGVWLNTTQPLCKAFMVTDEDIRKQEELVQQVRKRLEEALMADMLAHVEELARDGEAPLDKACAEDDDEEDEEEEEEEPDPDPEMEHV
modifications: left off: FLAG, end not stated, kept
notes: FLAG-tagged full-length MBD3 transiently expressed in 293F cells
Endogenous ADAR1; 293F cells, FLAG-IP
  co-immunoprecipitation of ADAR1-p110 (lacking Zα): also pulled down
Endogenous ADAR1; transient expression in 293F cells, anti-FLAG resin
  co-immunoprecipitation of endogenous ADAR1: endogenous ADAR1 was indeed pulled down

B7: D/E-rich peptide of MBD3, unlabelled (full-length D/E-rich peptide) (peptide)
chain: DKACAEDDDEEDEEEEEEEPDPDP
modifications: not checked
[9]
  IC50: 0.164 µM
